The values below come from paper PMC10967716.

Test in all cases: SEC
The target of experiment [1] is α-Methylacyl-CoA racemase from Mycobacterium tuberculosis, D156A mutant (M. tuberculosis) (UniProt O06543).
Experiment [2] concerns the target α-Methylacyl-CoA racemase from Mycobacterium tuberculosis, E241A mutant (M. tuberculosis) (UniProt O06543).
Experiment [3] addresses α-Methylacyl-CoA racemase from Mycobacterium tuberculosis, H126A mutant (M. tuberculosis) (UniProt O06543).

Consider “α-Methylacyl-CoA racemase from Mycobacterium tuberculosis, D156A mutant (from UniProt O06543 1-360) (enzyme)”, for which, in experiment [1], the stoichiometry N was found to be 2.
“α-Methylacyl-CoA racemase from Mycobacterium tuberculosis, E241A mutant (from UniProt O06543 1-360) (enzyme)” came in with a stoichiometry N in experiment [2] of 2.
As for “α-Methylacyl-CoA racemase from Mycobacterium tuberculosis, H126A mutant (from UniProt O06543 1-360) (enzyme)”, the stoichiometry N in experiment [3] worked out at 2.

As usually defined, the stoichiometry N is a count of units in the complex or per binding partner.
